Consider four molecules from PMC9633819 (Nature Communications, 2022).

Values joined by “and” are separate entries in the source; they are usually repeats but may differ in a detail not shown here. Identical values can stand only once.

In series [1] the target is neurofascin 155^Ig1–6 (residues 25–633), high mannose glycans (mouse). Put plainly: SEC-MALS + other: SAXS; dimer to monomers; estimate from the concentration dependence of peak position, molecular weight and Rg; 25 mM HEPES pH 7.5, 150 mM NaCl.
The target in series [2] is contactin 1^Ig1–6 HM, C-terminally biotinylated SPR ligand (mouse) (UniProt P12960). Put plainly: SPR; SPR imaging (MX96 SPRi); C-terminally biotinylated contactin 1 ligands spotted on a P-STREP SensEye chip, neurofascin 155^Ig1–6 as analyte; 25 °C; 25 mM HEPES pH 7.5, 150 mM NaCl with 0.005% Tween-20; equilibrium response fitted with a 1:1 Langmuir model. (SPR reads the build-up and loss of mass on a sensor chip optically.)

In series [3] the target is T1, contactin 1^fe HM (full ectodomain, residues 21–996), C-terminally biotinylated SPR ligand (mouse, UniProt P12960 21-996, biotin on the C-terminal biotin acceptor peptide; N-linked high mannose glycans).
T1 chain: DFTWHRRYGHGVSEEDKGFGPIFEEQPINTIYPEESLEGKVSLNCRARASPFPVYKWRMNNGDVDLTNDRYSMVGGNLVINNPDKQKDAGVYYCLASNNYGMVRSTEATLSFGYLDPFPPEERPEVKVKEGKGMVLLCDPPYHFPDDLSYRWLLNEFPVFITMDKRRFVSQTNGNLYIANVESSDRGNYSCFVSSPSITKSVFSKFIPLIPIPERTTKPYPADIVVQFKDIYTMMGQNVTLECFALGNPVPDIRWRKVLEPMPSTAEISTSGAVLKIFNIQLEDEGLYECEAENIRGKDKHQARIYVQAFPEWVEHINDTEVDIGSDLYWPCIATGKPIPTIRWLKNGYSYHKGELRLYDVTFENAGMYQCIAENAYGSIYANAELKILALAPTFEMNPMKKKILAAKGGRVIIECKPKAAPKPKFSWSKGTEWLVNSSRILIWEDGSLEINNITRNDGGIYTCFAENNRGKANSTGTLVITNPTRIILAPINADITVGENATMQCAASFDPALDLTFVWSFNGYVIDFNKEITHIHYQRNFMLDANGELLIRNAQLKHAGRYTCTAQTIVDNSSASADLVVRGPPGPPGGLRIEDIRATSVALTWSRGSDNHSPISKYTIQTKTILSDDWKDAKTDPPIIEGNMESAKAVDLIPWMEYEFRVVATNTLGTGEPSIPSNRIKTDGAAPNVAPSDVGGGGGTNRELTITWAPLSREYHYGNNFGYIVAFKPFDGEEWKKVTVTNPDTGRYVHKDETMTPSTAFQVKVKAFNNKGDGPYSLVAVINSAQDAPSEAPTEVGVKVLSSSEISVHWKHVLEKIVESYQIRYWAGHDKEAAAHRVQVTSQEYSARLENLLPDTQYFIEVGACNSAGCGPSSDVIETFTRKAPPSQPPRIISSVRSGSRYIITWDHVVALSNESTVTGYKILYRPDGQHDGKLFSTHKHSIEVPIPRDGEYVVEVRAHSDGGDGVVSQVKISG
Put plainly: SPR.

The next series is described as follows: SAXS Kratky plots. Conditions: glycan changed form; control: contactin 1 with complex glycans.
Series [4] is described as follows: K562 cell clustering, co-clustering ratio. Conditions: glycan changed form; control: untreated contactin 1 and neurofascin 155 K562 cells.
The nature of series [5]: K562 cell clustering index. Conditions: glycan changed form; control: untreated contactin 1 K562 cells.

B1: neurofascin 155^Ig1–6 (residues 25–633), high mannose glycans (domain or fragment)
chain: IEIPMDLTQPPTITKQSVKDHIVDPRDNILIECEAKGNPAPSFHWTRNSRFFNIAKDPRVSMRRRSGTLVIDFRSGGRPEEYEGEYQCFARNKFGTALSNRIRLQVSKSPLWPKENLDPVVVQEGAPLTLQCNPPPGLPSPVIFWMSSSMEPITQDKRVSQGHNGDLYFSNVMLQDMQTDYSCNARFHFTHTIQQKNPFTLKVLTNNPYNDSSLRNHPDIYSARGVAERTPSFMYPQGTSSSQMVLRGMDLLLECIASGVPTPDIAWYKKGGDLPSNKAKFENFNKALRITNVSEEDSGEYFCLASNKMGSIRHTISVRVKAAPYWLDEPKNLILAPGEDGRLVCRANGNPKPTVQWMVNGEPLQSAPPNPNREVAGDTIIFRDTQISSRAVYQCNTSNEHGYLLANAFVSVLDVPPRMLSARNQLIRVILYNRTRLDCPFFGSPIPTLRWFKNGQGSNLDGGNYHVYENGSLEIKMIRKEDQGIYTCVATNILGKAENQVRLEVKDPTRIYRMPEDQVAKRGTTVQLECRVKHDPSLKLTVSWLKDDEPLYIGNRMKKEDDSLTIFGVAERDQGSYTCMASTELDQDLAKAYLTVLADQATPTNRLAA
modifications: N-linked high mannose glycans (glycans at Asn316, Asn420, Asn457 and Asn494 are named)
In the case of B1, the Kd (usually the free concentration of one partner at which half of the binding sites on the other are occupied at equilibrium, for simple one-to-one binding) in series [1] was 5000 to 30000 nM; in series [2], 220 nM; in series [3], 270 nM and 310 nM.

B2: contactin 1: high mannose glycans (GnTI- HEK293) (protein)
parent chain: MKMPLLVSHLLLISLTSCLGDFTWHRRYGHGVSEEDKGFGPIFEEQPINTIYPEESLEGKVSLNCRARASPFPVYKWRMNNGDVDLTNDRYSMVGGNLVINNPDKQKDAGVYYCLASNNYGMVRSTEATLSFGYLDPFPPEERPEVKVKEGKGMVLLCDPPYHFPDDLSYRWLLNEFPVFITMDKRRFVSQTNGNLYIANVESSDRGNYSCFVSSPSITKSVFSKFIPLIPIPERTTKPYPADIVVQFKDIYTMMGQNVTLECFALGNPVPDIRWRKVLEPMPSTAEISTSGAVLKIFNIQLEDEGLYECEAENIRGKDKHQARIYVQAFPEWVEHINDTEVDIGSDLYWPCIATGKPIPTIRWLKNGYSYHKGELRLYDVTFENAGMYQCIAENAYGSIYANAELKILALAPTFEMNPMKKKILAAKGGRVIIECKPKAAPKPKFSWSKGTEWLVNSSRILIWEDGSLEINNITRNDGGIYTCFAENNRGKANSTGTLVITNPTRIILAPINADITVGENATMQCAASFDPALDLTFVWSFNGYVIDFNKEITHIHYQRNFMLDANGELLIRNAQLKHAGRYTCTAQTIVDNSSASADLVVRGPPGPPGGLRIEDIRATSVALTWSRGSDNHSPISKYTIQTKTILSDDWKDAKTDPPIIEGNMESAKAVDLIPWMEYEFRVVATNTLGTGEPSIPSNRIKTDGAAPNVAPSDVGGGGGTNRELTITWAPLSREYHYGNNFGYIVAFKPFDGEEWKKVTVTNPDTGRYVHKDETMTPSTAFQVKVKAFNNKGDGPYSLVAVINSAQDAPSEAPTEVGVKVLSSSEISVHWKHVLEKIVESYQIRYWAGHDKEAAAHRVQVTSQEYSARLENLLPDTQYFIEVGACNSAGCGPSSDVIETFTRKAPPSQPPRIISSVRSGSRYIITWDHVVALSNESTVTGYKILYRPDGQHDGKLFSTHKHSIEVPIPRDGEYVVEVRAHSDGGDGVVSQVKISGVSTLSSSLLSLLLPSLGFLVYSEF
For B2, in “SAXS Kratky plots”, the structure_or_conformation result is listed as “no change”.

B3: contactin 1: kifunensine on both cell types (protein)
parent chain: B2 parent chain
Consider B3, for which the “other: heterophilic cell co-clustering” value in series [4] is “no change”.

B4: contactin 1: kifunensine (protein)
parent chain: B2 parent chain
In the case of B4, the “other: homophilic cell clustering” value in series [5] is “no change”.
